Numbering of substitutions follows the chain as printed.
T1: His-tagged human B7-H3 (human, UniProt Q5ZPR3-2 29-245, limits assumed)
T1 construct: Bought His-tagged protein coated on the ELISA plate; also called hu B7-H3; CD276
T1 sequence (looked up): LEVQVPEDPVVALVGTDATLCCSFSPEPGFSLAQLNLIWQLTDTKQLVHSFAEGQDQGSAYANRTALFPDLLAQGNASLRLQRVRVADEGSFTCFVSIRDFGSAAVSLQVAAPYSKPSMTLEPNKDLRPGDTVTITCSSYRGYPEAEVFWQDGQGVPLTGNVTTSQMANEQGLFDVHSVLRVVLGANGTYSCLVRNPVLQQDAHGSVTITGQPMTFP

T2: His-tagged mouse B7-H3 (mouse, UniProt Q8VE98 29-244, limits assumed)
T2 construct: Bought His-tagged protein coated on the ELISA plate; also called mu B7-H3; murine B7-H3
T2 sequence (looked up): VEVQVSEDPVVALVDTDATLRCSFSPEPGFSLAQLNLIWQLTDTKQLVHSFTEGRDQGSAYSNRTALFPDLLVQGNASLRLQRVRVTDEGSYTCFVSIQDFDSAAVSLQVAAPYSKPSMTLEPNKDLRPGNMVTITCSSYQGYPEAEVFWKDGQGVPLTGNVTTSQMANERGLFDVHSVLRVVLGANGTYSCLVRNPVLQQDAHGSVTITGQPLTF

T3: His-tagged cynomolgus monkey B7-H3 (cynomolgus monkey)
T3 chain: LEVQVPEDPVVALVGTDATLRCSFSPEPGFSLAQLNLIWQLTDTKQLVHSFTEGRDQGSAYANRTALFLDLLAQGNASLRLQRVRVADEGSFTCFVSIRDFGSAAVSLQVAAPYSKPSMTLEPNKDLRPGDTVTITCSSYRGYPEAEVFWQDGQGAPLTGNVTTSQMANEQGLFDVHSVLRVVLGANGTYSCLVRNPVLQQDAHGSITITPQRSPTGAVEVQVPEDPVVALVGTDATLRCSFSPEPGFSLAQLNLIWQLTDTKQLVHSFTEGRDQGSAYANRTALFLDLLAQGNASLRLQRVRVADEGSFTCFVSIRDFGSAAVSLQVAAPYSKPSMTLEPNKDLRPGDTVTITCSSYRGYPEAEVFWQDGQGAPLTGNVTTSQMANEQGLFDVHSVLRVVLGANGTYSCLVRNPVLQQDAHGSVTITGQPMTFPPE

T4: B7-H3 on B7-H3-expressing CHO cells (Genescript) (UniProt Q5ZPR3 29-534, limits assumed)
T4 construct: whole, on cells; also called CHO-K1/B7-H3; MFI B7-H3
T4 sequence (looked up): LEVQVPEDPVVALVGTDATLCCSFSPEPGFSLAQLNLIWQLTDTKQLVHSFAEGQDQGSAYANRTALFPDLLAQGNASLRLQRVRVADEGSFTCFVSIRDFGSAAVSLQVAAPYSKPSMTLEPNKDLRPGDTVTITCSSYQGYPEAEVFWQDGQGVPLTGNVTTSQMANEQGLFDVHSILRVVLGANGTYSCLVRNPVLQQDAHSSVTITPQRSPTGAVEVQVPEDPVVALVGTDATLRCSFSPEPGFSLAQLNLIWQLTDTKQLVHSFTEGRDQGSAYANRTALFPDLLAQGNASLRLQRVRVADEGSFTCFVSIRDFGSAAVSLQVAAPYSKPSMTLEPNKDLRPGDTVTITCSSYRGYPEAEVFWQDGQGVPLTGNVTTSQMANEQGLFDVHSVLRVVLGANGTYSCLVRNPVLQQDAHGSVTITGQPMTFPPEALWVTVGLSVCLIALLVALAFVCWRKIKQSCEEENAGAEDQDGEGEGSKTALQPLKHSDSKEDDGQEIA

B1: 40633p1.1.E4 (scFv, V domains shown)
VH: EVQLLESGGGLVQPGGSLRLSCAASGFTFSSYWMSWVRQAPGKGLEWVSGISSSGSATYYADSVKGRFTISRDNSKNTLYLQMNSLRAEDTAVYYCARWNDYDIMDVWGQGTTVTVSS
VL: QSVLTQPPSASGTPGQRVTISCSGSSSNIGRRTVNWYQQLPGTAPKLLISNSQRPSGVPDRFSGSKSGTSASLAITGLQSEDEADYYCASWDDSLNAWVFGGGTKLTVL
notes: Tested as scFv-Fc (Expi293 supernatant)
B2: 40633p1.2.A8 (scFv, V domains shown)
VH: EVQLLESGGGLLQPGGSLRLSCAASGFSFSSYGMHWVRQAPGKGLEWVAAINSDGSRIYYADSVKGRFTISRDNSKNTLYLQMNSLRAEDTAVYYCTKYYYHYAMDVWGQGTTVTVSS
VL: QSVLTQPPSASGTPGQRVTISCSGSRSDIGATTVNWYQQLPGTAPKLLIYQSHLRPSGVPDRFSGSKSGTSASLAISGLQSEDEADYYCASWDASLNTWVFGGGTKLTVL
notes: as for B1
B3: 40633p1.2.G9 (scFv, V domains shown)
VH: B2 VH with K65E
VL: B2 VL
notes: as for B1
B4: 40633p1.1.B12 (scFv, V domains shown)
VH: B2 VH
VL: B2 VL with I49T
notes: as for B1
B5: 40633p1.1.A7 (scFv, V domains shown)
VH: EVQLLESGGGLVQPGGSLRLSCAASGFTVSYYGMSWVRQAPGKGLEWVSAIKQDGSEKYYADSVKGRFTISRDNSKNTLYLQMNSLRAEDTAVYYCARHWNDYSNAMNVWGQGTTVTVSS
VL: QSVLTQPPSASGTPGQRVTISCSGSTSNIGRESVYWYQQLPGTAPKLLIYTIDQRPSGVPDRFSGSKSGTSASLAISGLQSEDEAVYYCASWDASLNGWVFGGGTKLTVL
notes: as for B1
B6: 40633p1.1.B3 (scFv, V domains shown)
VH: B5 VH
VL: B5 VL with V86D, A90G, S91T, A94D, G98A
notes: as for B1
B7: 40633p1.2.C3 (scFv, V domains shown)
VH: B5 VH with G111E
VL: B5 VL with T26N, I29V, R31G, E32N, S33Y, Y35S, T51R, I52N, D53S
notes: as for B1
B8: 40633p1.1.G11 (scFv, V domains shown)
VH: B5 VH with A50V, K58E, L86P, A106G
VL: B5 VL with I29V, R31D, E32R, S33Y, T51L, I52D, V86D
notes: as for B1
B9: 40633p1.2.F3 (scFv, V domains shown)
VH: B5 VH with A50V, K58E, A106G
VL: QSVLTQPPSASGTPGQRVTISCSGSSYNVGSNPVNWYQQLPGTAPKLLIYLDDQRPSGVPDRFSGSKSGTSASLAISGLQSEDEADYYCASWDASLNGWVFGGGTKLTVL
notes: as for B1
B10: 40633p1.2.E1 (scFv, V domains shown)
VH: B5 VH with G9R, A50V, K58E, A106G
VL: B5 VL with I29V, R31D, E32R, S33Y, T51L, I52D, V86D
notes: as for B1

Molecular target: T1, His-tagged human B7-H3
Experiment: ELISA, coated His-tagged antigen, scFv-Fc 1 ug/ml
Experimental: (§1) The variable regions of heavy and light chains were cloned and assembled into a single chain Fv-Fc (ScFv-Fc) mammalian expression vector. Sanger sequencing was performed by GeneWiz and sequences were evaluated using DNASTAR Lasergene 15. Unique scFv-Fes were transiently expressed in Expi293 cells (Life Technologies, #A14527) grown in Expi293 Expression Medium (Life Technologies, #A1435101) after transfection using the ExpiFectamine transfection reagent and supplements (Life Technologies, #A14524). Cells were incubated for 3-5 days with shaking at 37° C. in a 5% CO2 humidified incubator.

ELISA OD450 @ 1 ug/ml [OD450] | Binder
1.95 | B1
2.17 | B2
2.08 | B3
1.83 | B4
1.95 | B5
2.04 | B6
1.78 | B7
2.05 | B8
1.96 | B9
1.9 | B10

Molecular target: T2, His-tagged mouse B7-H3
Experiment: ELISA, coated His-tagged antigen, scFv-Fc 1 ug/ml
Experimental: as §1

ELISA OD450 @ 1 ug/ml [OD450] | Binder
1.51 | B1
1.95 | B2
1.85 | B3
1.75 | B4
1.97 | B5
1.83 | B6
0.886 | B7
1.83 | B8
1.91 | B9
1.98 | B10

Molecular target: T3, His-tagged cynomolgus monkey B7-H3
Experiment: ELISA, coated His-tagged antigen, scFv-Fc 1 ug/ml
Experimental: as §1

ELISA OD450 @ 1 ug/ml [OD450] | Binder
1.86 | B1
2.16 | B2
2.41 | B3
1.72 | B4
1.7 | B5
1.89 | B6
2.01 | B7
1.72 | B8
2.04 | B9
1.95 | B10

Molecular target: T1, His-tagged human B7-H3
Experiment: ELISA OD450 on hu B7-H3 over OD450 on mu B7-H3
Experimental: as §1

hu:mu ratio | Binder
1.29 | B1
1.11 | B2
1.13 | B3
1.04 | B4
0.991 | B5
1.11 | B6
2.01 | B7
1.12 | B8
1.03 | B9
0.961 | B10

Molecular target: T4, B7-H3 on B7-H3-expressing CHO cells …
Experiment: flow cytometry, B7-H3-expressing CHO cells, 10 ug/ml
Experimental: Binding of anti-B7-H3 antibodies to cell lines was assessed by flow cytometry. Briefly, approximately 1.5 e5 B7-H3-expressing CHO cells (Genescript) or parent CHO cells (ATCC) were resuspended in FACS buffer (PBS/1% BSA/0.01% NaN3) containing 10 μg/ml of anti-B7-H3 antibodies and incubated for 60 min on ice. […] Cells were then washed twice, resuspended in FACS buffer, and read on an Attune Flow Cytometer (Life Technologies). Data are expressed as Mean Fluorescent Intensities (MFI).

MFI @ 10 ug/ml [MFI] | Binder
80000 | B1
62200 | B2
67600 | B3
65400 | B4
76400 | B5
74700 | B6
53100 | B7
75900 | B8
68800 | B9
64700 | B10

— patent US20260008852A1 (CRYSTAL BIOSCIENCE, published 2026)
